From patent US20220289833A1 (BIOSION, published 2022)
Like-named read-outs stand apart in the source and are kept apart here.

Assays:
[1] = target: T1, human TSLP-Fc (human, biotin-labeled); experiment: competitive ELISA: antibody pre-mixed with biotin-labeled human TSLP-Fc; blocked binding to coated human TSLPR-Fc/IL7Ra-Fc
T1 construct: Prepared in-house; also called biotin-labeled human TSLP-Fc; TSLP-Fc-biotin

[2] = target: T1, human TSLP-Fc; experiment: as above; remark: listed apart in the source
[3] = target: T1, human TSLP-Fc; experiment: cell-based ligand-blocking FACS: antibody pre-mixed with human TSLP-Fc; blocked binding to BAF3-3E6 cells expressing human TSLPR and IL7R
[4] = target: T1, human TSLP-Fc; experiment: competitive ELISA: antibody pre-mixed with biotin-labeled human TSLP-Fc; blocked binding to coated Tezepelumab
[5] = target: T1, human TSLP-Fc; experiment: cell-based ligand-blocking FACS: antibody pre-mixed with human TSLP-Fc; blocked binding to BAF3-3E6 cells expressing human TSLPR and IL7R; remark: listed apart in the source
[6] = target: T1, human TSLP-Fc; experiment: competitive ELISA: antibody pre-mixed with biotin-labeled human TSLP-Fc; blocked binding to coated Tezepelumab; remark: listed apart in the source
[7] = target: T1, human TSLP-Fc; experiment: competitive ELISA: antibody pre-mixed with biotin-labeled human TSLP-Fc; blocked binding to coated human TSLPR-Fc/IL7Ra-Fc; remark: listed apart in the source
[8] = target: T2, Recombinant cynomolgus monkey TSLP-his (cynomolgus monkey); experiment: indirect ELISA on coated cynomolgus TSLP-his
T2 construct: Prepared in-house; Amine-coupled to CM5 chip in SPR, coated on plates in the indirect ELISA; also called cynomolgus TSLP; cynomolgus TSLP-his protein
T2 chain: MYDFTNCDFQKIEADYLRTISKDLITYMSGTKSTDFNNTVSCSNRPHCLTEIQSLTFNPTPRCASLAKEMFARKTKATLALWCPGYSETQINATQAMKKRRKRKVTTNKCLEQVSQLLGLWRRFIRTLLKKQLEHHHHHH

[9] = target: T1, human TSLP-Fc; experiment: cell-based ligand-blocking FACS: antibody pre-mixed with human TSLP-Fc; blocked binding to BAF3-3E6 cells expressing human TSLPR and IL7R; remark: listed apart in the source
[10] = target: T2, Recombinant cynomolgus monkey TSLP-his; experiment: indirect ELISA on coated cynomolgus TSLP-his
[11] = target: T1, human TSLP-Fc; experiment: competitive ELISA: antibody pre-mixed with biotin-labeled human TSLP-Fc; blocked binding to coated human TSLPR-Fc/IL7Ra-Fc; remark: listed apart in the source
[12] = target: T2, Recombinant cynomolgus monkey TSLP-his; experiment: SPR, BIAcore; protocol of Example 2
[13] = target: T1, human TSLP-Fc; experiment: cell-based ligand-blocking FACS: antibody pre-mixed with human TSLP-Fc; blocked binding to BAF3-3E6 cells expressing human TSLPR and IL7R; remark: listed apart in the source
[14] = target: T1, human TSLP-Fc; experiment: competitive ELISA: antibody pre-mixed with biotin-labeled human TSLP-Fc; blocked binding to coated Tezepelumab; remark: listed apart in the source
[15] = target: T2, Recombinant cynomolgus monkey TSLP-his; experiment: SPR, Biacore T200; cynomolgus TSLP-his amine-coupled to CM5 chip, antibody as analyte; 1:1 Langmuir fit
[16] = target: T1, human TSLP-Fc; experiment: competitive ELISA: antibody pre-mixed with biotin-labeled human TSLP-Fc; blocked binding to coated Tezepelumab; remark: listed apart in the source

- IC50 [1]: 0.0777 nM
- IC50 [2]: 0.506 nM
- IC50 [3]: 0.728 nM
- IC50 [4]: 0.486 nM
- IC50 [5]: 1.45 nM
- IC50 [6]: 0.495 nM
- IC50 [7]: 6.27 nM
- EC50 [8]: 0.105 nM
- IC50 [9]: 0.759 nM
- EC50 [10]: 0.127 nM
- IC50 [11]: 0.99 nM
- Kd [12]: 0.0672 nM
- IC50 [13]: 1.48 nM
- IC50 [14]: 0.18 nM
- Kd [15]: 0.0733 nM
- IC50 [16]: 5.79 nM
B1: Tezepelumab (antibody, human IgG2, lambda, V domains shown)
VH: QMQLVESGGGVVQPGRSLRLSCAASGFTFRTYGMHWVRQAPGKGLEWVAVIWYDGSNKHYADSVKGRFTITRDNSKNTLNLQMNSLRAEDTAVYYCARAPQWELVHEAFDIWGQGTMVTVSS
VL: SYVLTQPPSVSVAPGQTARITCGGNNLGSKSVHWYQQKPGQAPVLVVYDDSDRPSWIPERFSGSNSGNTATLTISRGEAGDEADYYCQVWDSSSDHVVFGGGTKLTVLG
notes: also called TSLP-BM; benchmark
